Results published in patent US20250333534A1 (HEFEI TG IMMUNOPHARMA, published 2025).
Substitutions are numbered along the chain they refer to.

T1: Human CD155 protein (Human CD155), expressed on cells (human, UniProt P15151 21-417)
T1 construct: also called CHO-K1-human CD155; CHO-K1-CD155
T1 sequence: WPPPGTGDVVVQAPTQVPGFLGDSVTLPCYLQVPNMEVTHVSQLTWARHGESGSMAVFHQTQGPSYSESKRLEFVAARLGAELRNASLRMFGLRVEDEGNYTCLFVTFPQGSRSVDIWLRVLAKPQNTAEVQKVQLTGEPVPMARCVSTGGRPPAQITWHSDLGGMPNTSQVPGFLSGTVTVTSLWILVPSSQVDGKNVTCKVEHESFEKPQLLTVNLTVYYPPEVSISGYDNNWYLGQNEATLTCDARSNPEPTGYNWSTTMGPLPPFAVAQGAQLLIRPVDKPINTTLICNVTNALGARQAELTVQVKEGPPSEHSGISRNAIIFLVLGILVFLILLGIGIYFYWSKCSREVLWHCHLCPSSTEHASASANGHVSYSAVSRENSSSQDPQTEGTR

B1: affinity-matured humanized antibody V21 (tgi1005 V21-hIgG1/4) (antibody, V domains shown)
VH: QVQLVQSGAEVKKPGASVKVSCKASGYTFTSSYISWVRQAPGQGLEWIAWIYAGTGDTNYNQKFTGRVTMTTDTSTSTAYMELRSLRSDDTAVYYCARHGYTGRGWYFAVWGQGTTVTVSS
VL: QAVVTQEPSLTVSPGGTVTLTCRSSTGAVTTSNYANWVQQKPGQAFRGLIGGTNNRAPGVPARFSGSLLGDKAALTLSGAQPEDEAEYYCILWYSNHFVFGGGTKLTVL
B2: affinity-matured humanized antibody V40 (tgi1005 V40-hIgG1/4) (antibody, V domains shown)
VH: B1 VH with Y101M
VL: B1 VL with Y34L, G52H, H97K
B3: affinity-matured humanized antibody V28 (tgi1005 V28-hIgG1/4/1LALA) (antibody, V domains shown)
VH: B1 VH with Y101L, G105H
VL: B1 VL with Y34I, A57G, H97K
B4: affinity-matured humanized antibody V20 (tgi1005 V20-hIgG1/4/1LALA) (antibody, V domains shown)
VH: B1 VH
VL: B1 VL with Y34L, G52H, I91A, H97K
B5: human-mouse chimeric antibody mutgi1005-hIgG4 (antibody)
heavy: not shown
light: QAVVTQESALTTSPGETVTLTCRSSTGAVTTSNYANWVQEKPDHLFTGLIGGTNNRAPGVPARFSGSLIGDKAALTITGAQTEDEAIYFCALWYSNHFVFGGGTKLTVLGQPKAAPSVTLFPPSSEELQANKATLVCLISDFYPGAVTVAWKADSSPVKAGVETTTPSKQSNNKYAASSYLSLTPEQWKSHRSYSCQVTHEGSTVEKTVAPTECS
notes: Murine variable regions fused with wild-type human IgG4 and lambda constant regions; also called mutgi1005-hlgG4; chimeric CD155 antibody
B6: human-mouse chimeric antibody mutgi1005-hIgG1 (antibody)
heavy: not shown
light: B5 light
notes: Murine variable regions fused with wild-type human IgG1 and lambda constant regions; also called chimeric CD155 antibody
B7: murine CD155 antibody (mutgi1005) (antibody, mouse IgG2a)
heavy: QVQMQQSGAELVKPGASVKLSCKTSGFTFSSSYISWLKQKPGQSLEWIAWIYAGTGDTNYNQKFTGKAQVTVDTSSSTAYMQFSSLTTEDSAIYYCVRHGSTGRGWYFAVWGAGTTVTVSSAKTTAPSVYPLAPVCGDTTGSSVTLGCLVKGYFPEPVTLTWNSGSLSSGVHTFPAVLQSDLYTLSSSVTVTSSTWPSQSITCNVAHPASSTKVDKKIEPRGPTIKPCPPCKCPAPNLLGGPSVFIFPPKIKDVLMISLSPIVTCVVVDVSEDDPDVQISWFVNNVEVHTAQTQTHREDYNSTLRVVSALPIQHQDWMSGKEFKCKVNNKDLPAPIERTISKPKGSVRAPQVYVLPPPEEEMTKKQVTLTCMVTDFMPEDIYVEWTNNGKTELNYKNTEPVLDSDGSYFMYSKLRVEKKNWVERNSYSCSVVHEGLHNHHTTKSFSRTPGK
light: QAVVTQESALTTSPGETVTLTCRSSTGAVTTSNYANWVQEKPDHLFTGLIGGTNNRAPGVPARFSGSLIGDKAALTITGAQTEDEAIYFCALWYSNHFVFGGGTKLTVLQPKSSPSVTLFPPSSEELETNKATLVCTITDFYPGVVTVDWKVDGTPVTQGMETTQPSKQSNNKYMASSYLTLTARAWERHSSYSCQVTHEGHTVEKSLSRADCS
notes: also called murine monoclonal antibody; murine antibody

Biological target: T1, Human CD155 protein (Human CD155), …
Test: flow cytometry on CHO-K1-human CD155 cells

Row | binding result | Binder
1 | binds | B1
2 | binds | B2
3 | binds | B3
4 | binds | B4
5 | binds | B5
6 | binds | B6
7 | binds | B7
